# Test results taken from article PMC2625307.
# Tests used:
# [Phe^23]M33 = SPR
# CD4M47 = assay: SPR
# [Phe^23]M47 = SPR
# CD4M33 = assay: SPR
# [1] = target: SIVcpz GAB-1 fl envelope (SIVcpz (P.t.t)) (UniProt P17281)
# [2] = target: HIV-1 NL4.3 envelope (HIV-1 group M)
# [3] = target: HIV-1 MN-8 envelope (HIV-1 group M)
# [4] = target: HIV-1 WEAU 16-8M envelope (HIV-1 group M)
# [5] = target: SIVcpz GAB-2 62 fl envelope (SIVcpz (P.t.t))
# [6] = target: HIV-1 SUMA d736-73 envelope (HIV-1 group M)
# [7] = target: HIV-1 MN-25 envelope (HIV-1 group M)
# [8] = target: HIV-1 SUMA d736-68 envelope (HIV-1 group M)
# Chain of SIVcpz GAB-1 fl envelope (SIVcpz (P.t.t)) (P17281 32-854): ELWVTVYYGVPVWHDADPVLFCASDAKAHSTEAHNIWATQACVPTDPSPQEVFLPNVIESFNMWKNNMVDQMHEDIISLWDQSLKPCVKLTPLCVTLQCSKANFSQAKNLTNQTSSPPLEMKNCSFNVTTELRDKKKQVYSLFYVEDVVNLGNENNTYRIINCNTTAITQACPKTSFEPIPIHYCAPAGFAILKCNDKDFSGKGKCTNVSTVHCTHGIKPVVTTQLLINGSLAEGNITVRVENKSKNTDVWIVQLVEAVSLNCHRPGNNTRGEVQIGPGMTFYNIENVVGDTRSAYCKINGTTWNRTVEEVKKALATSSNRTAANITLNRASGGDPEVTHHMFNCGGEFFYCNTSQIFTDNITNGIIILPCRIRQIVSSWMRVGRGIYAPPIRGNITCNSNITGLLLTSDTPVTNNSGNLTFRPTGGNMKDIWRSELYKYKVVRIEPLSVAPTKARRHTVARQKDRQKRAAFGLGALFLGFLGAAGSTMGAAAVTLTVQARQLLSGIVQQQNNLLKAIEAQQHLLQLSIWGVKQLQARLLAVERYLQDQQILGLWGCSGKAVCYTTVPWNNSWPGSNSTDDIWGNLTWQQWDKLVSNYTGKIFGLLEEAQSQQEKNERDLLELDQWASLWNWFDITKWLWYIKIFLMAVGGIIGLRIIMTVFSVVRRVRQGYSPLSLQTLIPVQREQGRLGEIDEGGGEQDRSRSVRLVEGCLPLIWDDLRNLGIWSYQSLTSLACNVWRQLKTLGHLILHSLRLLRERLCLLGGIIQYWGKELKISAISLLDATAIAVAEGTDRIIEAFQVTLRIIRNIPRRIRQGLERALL
Substance,Kd ([Phe^23]M33) [nM],koff ([Phe^23]M33) [s⁻¹],kon ([Phe^23]M33) [M⁻¹ s⁻¹],Kd (CD4M47) [nM],koff (CD4M47) [s⁻¹],kon (CD4M47) [M⁻¹ s⁻¹],Kd ([Phe^23]M47) [nM],koff ([Phe^23]M47) [s⁻¹],kon ([Phe^23]M47) [M⁻¹ s⁻¹],Kd (CD4M33) [nM],koff (CD4M33) [s⁻¹],kon (CD4M33) [M⁻¹ s⁻¹],"IC50 of neutralisation, HIV-entry assay on JC53BL-13 indicator cells [1] [nM]","IC50 of neutralisation, HIV-entry assay on JC53BL-13 indicator cells [2] [nM]","IC50 of neutralisation, HIV-entry assay on JC53BL-13 indicator cells [3] [nM]","IC50 of neutralisation, HIV-entry assay on JC53BL-13 indicator cells [4] [nM]","IC50 of neutralisation, HIV-entry assay on JC53BL-13 indicator cells [5] [nM]","IC50 of neutralisation, HIV-entry assay on JC53BL-13 indicator cells [6] [nM]","IC50 of neutralisation, HIV-entry assay on JC53BL-13 indicator cells [7] [nM]","IC50 of neutralisation, HIV-entry assay on JC53BL-13 indicator cells [8] [nM]"
YU2 gp120 (from UniProt P35961 32-498) (natural protein),35.1,0.00475,135000,2.12,0.000741,349000,3.87,0.000427,110000,12.5,0.00272,218000,,,,,,,,
[Phe^23]M33 (designed binder),,,,,,,,,,,,,350,13,85,130,1000,8500,3600,
CD4M47 (designed binder),,,,,,,,,,,,,150,3,11,64,230,370,150,3
[Phe^23]M47 (designed binder),,,,,,,,,,,,,69,4,15,47,290,950,320,7
CD4M33 (designed binder),,,,,,,,,,,,,340,5,34,85,400,480,350,4
